What was measured:
VASH1 full-length 44 kDa = assay: SPR; details: single-cycle kinetics; HBS-EP: 10 mM Hepes pH 7.4, 150 mM NaCl, 3 mM EDTA, 0.005% surfactant P20 (stated for immobilization); SA chip, Biacore T200, protein 16.25-300 nM, 1:1 …
[1] = tested on: VASH1 27-kDa N-terminal part-GST; assay: SPR; details: HBS-EP: 10 mM Hepes pH 7.4, 150 mM NaCl, 3 mM EDTA, 0.005% surfactant P20 (stated for immobilization); SA chip, Biacore T200, protein 16.25-300 nM, 1:1 …

Substance | Kd (VASH1 full-length 44 kDa) [nM] | Kd [1] [nM]
VEGFAa IRES | 8 | 
FGF1 IRES | 6.5 | 2800
EMCV IRES | 9.6 | 

Source: publication PMC6946400
